# Measurements from publication PMC6123407.
# B1: HvACT1 (agmatine coumaroyltransferase, ACT) (Hordeum vulgare) (protein)
# chain: MKITVHSSKAVKPEYGACGLAPGCTADVVPLTVLDKANFDTYISVIYAFHAPAPPNAVLEAGLGRALVDYREWAGRLGVDASGGRAILLNDAGARFVEATADVALDSVMPLKPTSEVLSLHPSGDDGPEELMLIQVTRFACGSLVVGFTTQHIVSDGRSTGNFFVAWSQATRGAAIDPVPVHDRASFFHPREPLHVEYEHRGVEFKPCEKAHDVVCGADGDEDEVVVNKVHFSREFISKLKAHASAGAPRPCSTLQCVVAHLWRSMTMARGLDGGETTSVAIAVDGRARMSPQVPDGYTGNVILWARPTTTAGELVTRPVKHAVELISREVARINDGYFKSFIDFANSGAVEKERLVATADAADMVLSPNIEVDSWLRIPFYDMDFGGGRPFFFMPSYLPVEGLLILLPSFLGDGSVDAYVPLFSRDMNTFKNCCYSLD
# Experiments:
# Experiment in all cases: purified protein
# purified protein [1] = substrate: NCCCCN; details: 100 μM p-coumaroyl-CoA, 50 mM Tris-HCl pH 7.5, room temperature, apparent Km, acyl-acceptor
# purified protein [2] = substrate: CC(C)(COP(=O)(O)OP(=O)(O)OC[C@H]1O[C@@H](n2cnc3c(N)ncnc32)[C@H](O)[C@@H]1OP(=O)(O)O)[C@@H](O)C(=O)NCCC(=O)NCCSC(=O)/C=C/c1ccc(O)cc1; details: 100 μM agmatine sulphate, 50 mM Tris-HCl pH 7.5, room temperature, apparent Km, acyl-donor
# purified protein [3] = substrate: N=C(N)NCCCCN; details: 100 μM p-coumaroyl-CoA, 50 mM Tris-HCl pH 7.5, room temperature, apparent Km, acyl-acceptor
# purified protein [4] = substrate: COc1cc(/C=C/C(=O)SCCNC(=O)CCNC(=O)[C@H](O)C(C)(C)COP(=O)(O)OP(=O)(O)OC[C@H]2O[C@@H](n3cnc4c(N)ncnc43)[C@H](O)[C@@H]2OP(=O)(O)O)ccc1O; details: 100 μM agmatine sulphate, 50 mM Tris-HCl pH 7.5, room temperature, apparent Km, acyl-donor
protein,measurement,setting,value
B1,Km,purified protein [1],"7,200 ± 530 μM"
same,kcat,purified protein [1],4.7 s⁻¹
same,kcat/Km,purified protein [1],650 M⁻¹ s⁻¹
same,Km,purified protein [2],1.1 ± 0.12 µM
same,kcat,purified protein [2],39 s⁻¹
same,kcat/Km,purified protein [2],3.5e+07 M⁻¹ s⁻¹
same,Km,purified protein [3],1.7 ± 0.13 µM
same,kcat,purified protein [3],38 s⁻¹
same,kcat/Km,purified protein [3],2.2e+07 M⁻¹ s⁻¹
same,Km,purified protein [4],2.0 ± 0.14 µM
same,kcat,purified protein [4],18 s⁻¹
same,kcat/Km,purified protein [4],9e+06 M⁻¹ s⁻¹
